Measured values reported in patent US20240018237A1 (SICHUAN KELUN BIOTECH BIOPHARMACEUTICAL, published 2024).
Positions count from the first letter of the chain named. Where two headings read alike, the source gives them in different places.

B1: 19F6-Hu35V1 (antibody, human IgG1, kappa, V domains shown)
VH: QVQLQESGPGLVKPSQTLSLTCTVSGYSITSDYAWNWIRQFPGKGLEWIGYISYSGSIRYNPSLKSRVTISRDTSKNQFSLKLSSVTAADTAVYYCARGEITYYFDYWGQGTLVTVSS
VL: ETTLTQSPAFMSATPGDKVTISCKASTSIDDDMNWYQQKPGEPPKLIISEGNTLRPGIPPRFSSSGYGTDFTFTINKIKSEDAATYYCLQSNDLPLTFGQGTKLEIKR
notes: humanized, human IgG1 / kappa
B2: 19F6-Hu22 (antibody, human IgG1, kappa, V domains shown)
VH: B1 VH with Q16E, F41P, I49M, S66D, V68I
VL: DIQMTQSPSSLSASVGDRVTITCITTTDIDDDMNWYQQKPGKAPKLLISEGNTLQSGVPSRFSGSGYGTDFTLTISSLQPEDFATYYCLQSNDLPLTFGQGTKLEIKR
notes: humanized, human IgG1 / kappa
B3: 19F6-Hu34 (antibody, human IgG1, kappa, V domains shown)
VH: B1 VH
VL: DIQMTQSPSSLSASVGDRVTITCQTSTDIDDDLNWYQQKPGKPPKLLISEGNTLETGVPSRFSGSGSGTDFTFTISSLQPEDIADYYCLQSNDLPLTFGAGTKLEIKR
notes: humanized, human IgG1 / kappa
B4: 19F6-Hu14 (antibody, human IgG1, kappa, V domains shown)
VH: B1 VH with Q16E, S25T, F41P, I49M, N61K, S66D, V68I
VL: B3 VL
notes: humanized, human IgG1 / kappa
B5: 19F6-Hu31 (antibody, human IgG1, kappa, V domains shown)
VH: B1 VH
VL: B2 VL with Q55R, S56P
notes: humanized, human IgG1 / kappa
B6: 19F6-Hu11 (antibody, human IgG1, kappa, V domains shown)
VH: B1 VH with Q16E, S25T, F41P, I49M, N61K, S66D, V68I
VL: B2 VL with Q55R, S56P
notes: humanized, human IgG1 / kappa
B7: 19F6-Hu33 (antibody, human IgG1, kappa, V domains shown)
VH: B1 VH
VL: B2 VL with I24R, T25A, T26S, S49Y
notes: humanized, human IgG1 / kappa
B8: 19F6-Hu35V10 (antibody, human IgG1, kappa, V domains shown)
VH: B1 VH
VL: B1 VL with S28D, D31S, E42K, N76R, K79E, T85D
notes: humanized, human IgG1 / kappa
B9: 19F6-Hu13 (antibody, human IgG1, kappa, V domains shown)
VH: B1 VH with Q16E, S25T, F41P, I49M, N61K, S66D, V68I
VL: B2 VL with I24R, T25A, T26S, S49Y
notes: humanized, human IgG1 / kappa
B10: 19F6-Hu21 (antibody, human IgG1, kappa, V domains shown)
VH: B1 VH with Q16E, F41P, I49M, S66D, V68I
VL: B2 VL with Q55R, S56P
notes: humanized, human IgG1 / kappa
B11: 19F6-Hu32 (antibody, human IgG1, kappa, V domains shown)
VH: B1 VH
VL: B2 VL
notes: humanized, human IgG1 / kappa
B12: 19F6-Hu12 (antibody, human IgG1, kappa, V domains shown)
VH: B1 VH with Q16E, S25T, F41P, I49M, N61K, S66D, V68I
VL: B2 VL
notes: humanized, human IgG1 / kappa
B13: 19F6-Hu24 (antibody, human IgG1, kappa, V domains shown)
VH: B1 VH with Q16E, F41P, I49M, S66D, V68I
VL: B3 VL
notes: humanized, human IgG1 / kappa
B14: 19F6-Hu23 (antibody, human IgG1, kappa, V domains shown)
VH: B1 VH with Q16E, F41P, I49M, S66D, V68I
VL: B2 VL with I24R, T25A, T26S, S49Y
notes: humanized, human IgG1 / kappa
B15: 19F6-Hu35V9 (antibody, human IgG1, kappa, V domains shown)
VH: B1 VH
VL: B1 VL with E42K, N76R, K79E, T85D
notes: humanized, human IgG1 / kappa
B16: 3D8-HuC24 (antibody, human IgG1, kappa, V domains shown)
VH: EVQLVESGGGLVQPGGSLRLSCAASGFTFSSYAMSWVRQAPGKGLEWVASINSGGSTYYPDSVKGRFTISRDNAKNSLYLQMNSLRAEDTAVYYCARVNYYGYGDYAMDYWGQGTLVTVSS
VL: DIQMTQSPSSLSASVGDRVTITCQASQDISNYLTWFQQKPGKSPKTLIHRANRLVTGVPSRFSGSGSGTDFTFTISSLQPEDIATYYCLQYDEFPYTFGGGTKVEIKR
notes: humanized, human IgG1 / kappa
B17: 38F8-Hu57 (antibody, human IgG1, kappa, V domains shown)
VH: EVQLVESGGGLVQPGGSLRLSCAASGFTFSNYAMSWVRQAPEKRLEWVASISSGGPTYYPDSVKGRFTVSRDNSKNTLYLQMNSLRAEDTAVYYCARGYRYDVNWYFDVWGAGTMVTVSS
VL: B16 VL with F71Y, T85I
notes: humanized, human IgG1 / kappa
B18: 3D8-Chi (antibody, human IgG1, kappa, V domains shown)
VH: EVKLVESGGGLVKPGGSLKLSCAASGFTFSSYAMSWVRQTPEKRLEWVASINSGGSTYYPDSVKGRFTISRDNARNILYLQMSSLRSEDTAMYYCARVNYYGYGDYAMDYWGQGTSVTVSS
VL: DIKMTQSPSSMYASLGERVTITCKASQDINSYLSWFQQKPGKSPKTLIYRANRLVDGVPSRFSGSGSGQDYSLTISSLEYEDMGIYYCLQYDEFPYTFGGGTNLEIKR
notes: Variable regions of 3D8.2.3 on human IgG1 / kappa constant regions; also called anti-human ROR1 chimeric antibody 3D8-Chi

Legend:
[1] = target: T1, human ROR1 (full-length, on the cell surface) (human, UniProt Q01973 30-937); test: cell-based or functional assay
T1 sequence (Q01973 30-937): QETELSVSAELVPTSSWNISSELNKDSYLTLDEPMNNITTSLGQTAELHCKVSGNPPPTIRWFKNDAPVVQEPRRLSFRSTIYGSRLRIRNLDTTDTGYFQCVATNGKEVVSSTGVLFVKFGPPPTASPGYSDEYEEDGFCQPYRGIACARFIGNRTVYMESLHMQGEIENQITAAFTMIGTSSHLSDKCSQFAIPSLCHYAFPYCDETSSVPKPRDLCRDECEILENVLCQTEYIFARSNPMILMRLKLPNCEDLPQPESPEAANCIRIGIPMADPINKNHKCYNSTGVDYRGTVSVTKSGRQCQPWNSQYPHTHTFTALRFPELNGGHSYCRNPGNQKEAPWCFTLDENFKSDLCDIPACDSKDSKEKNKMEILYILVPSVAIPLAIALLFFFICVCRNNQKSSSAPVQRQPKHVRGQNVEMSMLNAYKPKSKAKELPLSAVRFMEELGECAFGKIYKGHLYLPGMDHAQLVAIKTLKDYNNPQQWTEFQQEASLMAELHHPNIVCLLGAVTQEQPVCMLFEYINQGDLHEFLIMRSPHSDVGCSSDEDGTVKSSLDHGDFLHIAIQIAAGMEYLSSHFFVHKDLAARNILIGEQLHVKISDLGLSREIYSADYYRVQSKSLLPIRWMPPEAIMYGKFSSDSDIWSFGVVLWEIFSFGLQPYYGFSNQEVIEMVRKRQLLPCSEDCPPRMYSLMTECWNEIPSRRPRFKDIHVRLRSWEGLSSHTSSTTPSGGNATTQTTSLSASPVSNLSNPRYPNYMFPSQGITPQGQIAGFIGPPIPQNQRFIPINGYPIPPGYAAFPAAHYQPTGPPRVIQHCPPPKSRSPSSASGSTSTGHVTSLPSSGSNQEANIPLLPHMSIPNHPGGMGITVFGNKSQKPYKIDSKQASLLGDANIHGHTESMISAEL

[2] = target: T1, human ROR1 (full-length, on the cell …); test: cell-based or functional assay; remark: listed apart in the source
[3] = target: T1, human ROR1 (full-length, on the cell …); test: flow cytometry, A549 cells
Description: (§1) The affinities of the anti-human ROR1 humanized antibodies to Ba/F3-ROR1, Jeko-1, HT-29 and A549 cells were detected by flow cytometry. The specific experimental steps were as follows: the BaBF3-ROR1, Jeko-1, HT-29 and A549 cells were incubated with the purified humanized antibodies of different concentration gradients on ice for 30 minutes, and the anti-ROR1 antibody UC961 with human IgG1 and the anti-TNP antibody were used as positive and negative controls, respectively.

[4] = target: T1, human ROR1 (full-length, on the cell …); test: flow cytometry, HT-29 cells
Description: as §1

[5] = target: T1, human ROR1 (full-length, on the cell …); test: flow cytometry, Jeko-1 cells
Description: as §1

[6] = target: T1, human ROR1 (full-length, on the cell …); test: flow cytometry, Ba/F3-ROR1 cells
human ROR1 ECD protein [7] = target: T2, human ROR1 ECD protein (human, UniProt Q01973 30-406); test: BLI (Octet), antibody on AHC sensor, ROR1 ECD in solution
T2 construct: range 30-406; Expressed in Expi293 or ExpiCHO cells; also called Recombinant human ROR ECD
T2 sequence (Q01973 30-406): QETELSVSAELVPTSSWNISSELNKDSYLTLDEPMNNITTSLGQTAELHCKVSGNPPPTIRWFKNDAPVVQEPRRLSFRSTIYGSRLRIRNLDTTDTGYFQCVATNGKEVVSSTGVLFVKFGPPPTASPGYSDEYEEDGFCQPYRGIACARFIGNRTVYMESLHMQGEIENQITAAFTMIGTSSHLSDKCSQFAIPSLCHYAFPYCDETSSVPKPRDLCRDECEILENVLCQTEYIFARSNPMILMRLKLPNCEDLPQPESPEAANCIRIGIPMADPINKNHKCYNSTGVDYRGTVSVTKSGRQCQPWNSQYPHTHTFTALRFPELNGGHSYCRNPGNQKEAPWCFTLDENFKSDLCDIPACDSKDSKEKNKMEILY

human ROR1 ECD protein [8] = target: T2, human ROR1 ECD protein; test: BLI (Octet), antibody on AHC sensor, ROR1 ECD in solution, 1:1 model
Description: The dynamic affinities of humanized molecules 19F6-Hu35V1, 3D8-HuC24 and 38F8-Hu57 and positive control antibody UC961 to human ROR1 ECD protein were determined by Octet ForteBio method.

[9] = target: T1, human ROR1 (full-length, on the cell …); test: flow cytometry, Ba/F3-ROR1 cells; remark: listed apart in the source
Description: as §1

[10] = target: T1, human ROR1 (full-length, on the cell …); test: flow cytometry, A549 cells; remark: listed apart in the source
Description: (§2) The affinities of the purified anti-human ROR1 chimeric antibodies binding to the Ba/F3-ROR1, Jeko-1, HT-29 and A549 cells were analyzed by flow cytometry. The specific experimental steps were as follows: the Ba/F3-ROR1, Jeko-1, HT-29 and A549 cells were incubated with the purified chimeric antibodies of different concentration gradients on ice for 30 minutes, and the anti-ROR1 antibody UC961 with human IgG1 and the anti-TNP antibody were used as positive and negative controls respectively.

[11] = target: T1, human ROR1 (full-length, on the cell …); test: flow cytometry, HT-29 cells; remark: listed apart in the source
Description: as §2

[12] = target: T1, human ROR1 (full-length, on the cell …); test: flow cytometry, Jeko-1 cells; remark: listed apart in the source
Description: as §2

[13] = target: T1, human ROR1 (full-length, on the cell …); test: flow cytometry, Ba/F3-ROR1 cells; remark: listed apart in the source
Description: as §2

human ROR1 ECD protein [14] = target: T2, human ROR1 ECD protein; test: BLI (Octet), antibody on AHC sensor, ROR1 ECD in solution, 1:1 model; remark: listed apart in the source
Text: Octet ForteBio is widely used in the detection of antibody-antigen dynamic affinity. This method was used to determine the dynamic affinities of the candidate chimeric antibodies 3D8-Chi, 19F6-Chi and 38F8-Chi and the positive control antibody UC961 to human ROR1.

Binder	EC50 [3] [nM]	EC50 [4] [nM]	EC50 [5] [nM]	EC50 [6] [nM]	further results
B1	0.08	0.15	0.12	0.17	internalization activity in N87 cells (pHrodo dye), fold over UC961 [1]: ~7 fold; EC50 of ADCC killing of Ba/F3-ROR1 cells by NK92MI-mCD16a-hFceRI cells [2]: 0.31 nM; fold stronger affinity than UC961 (by KD) (human ROR1 ECD protein [7]): 5.4 fold; Kd (human ROR1 ECD protein [8]): 1.61 nM; koff (human ROR1 ECD protein [8]): 0.000863 s⁻¹; kon (human ROR1 ECD protein [8]): 538000 M⁻¹ s⁻¹
B2	0.25	0.16	0.13	0.3	
B3	0.13	0.19	0.18	0.53	
B4	0.12	0.1	0.12	0.62	
B5	0.09	0.1	0.18	0.3	
B6	0.17	0.08	0.15	0.25	
B7	0.25	0.78	0.15	0.35	
B8	0.12	0.17	0.35	0.27	
B9	0.47	0.75	0.17	0.29	
B10	0.31	0.18	0.22	0.36	
B11	0.09	0.09	0.18	0.44	
B12	0.16	0.11	0.17	0.43	
B13	0.24	0.25	0.2	0.39	
B14	0.14	0.62	0.21	0.35	
B15	0.14	0.17	0.28	0.21	
B16	0.29	0.17	0.04		EC50 of ADCC killing of Ba/F3-ROR1 cells by NK92MI-mCD16a-hFceRI cells [2]: 0.28 nM; EC50 [9]: 0.23 nM; Kd (human ROR1 ECD protein [8]): 26.1 nM; koff (human ROR1 ECD protein [8]): 0.0153 s⁻¹; kon (human ROR1 ECD protein [8]): 586000 M⁻¹ s⁻¹
B17	0.23	0.33	0.07		EC50 of ADCC killing of Ba/F3-ROR1 cells by NK92MI-mCD16a-hFceRI cells [2]: 0.19 nM; EC50 [9]: 0.75 nM; Kd (human ROR1 ECD protein [8]): 10 nM; koff (human ROR1 ECD protein [8]): 0.00242 s⁻¹; kon (human ROR1 ECD protein [8]): 241000 M⁻¹ s⁻¹
B18					EC50 [10]: 0.28 nM; EC50 [11]: 0.463 nM; EC50 [12]: 0.619 nM; EC50 [13]: 0.62 nM; fold stronger affinity than UC961 (by KD) (human ROR1 ECD protein [7]): 2 fold; Kd (human ROR1 ECD protein [14]): 8.09 nM; koff (human ROR1 ECD protein [14]): 0.00381 s⁻¹; kon (human ROR1 ECD protein [14]): 471000 M⁻¹ s⁻¹
